Results published in patent US10309966B2, “Personalized therapy of inflammation-associated cancer using methods of assessing the susceptibility of a subject to the treatment with EGFR inhibitors/antagonists” (Medizinische Universität Wien, priority 2014, dated 2019).

What was measured:
[1] = test system: DSS-induced colitis; experiment: Oral recombinant IL-6 during DSS-induced colitis in EGFR mutant mice; assay type: in vivo, mouse; settings: for DSS-induced weight loss: IL-6 orally during DSS, FIG. 17B; for epithelial proliferation during colitis (BrdU): FIGS. 18A, 26A
Protocol: Colitis was induced by administering 2.5% dextran sulfate sodium salt (DSS) (MP Biomedicals, 0216011080) in autoclaved drinking water for 5 d followed by 5 d of normal water (Chalaris, A. et al., 2010). Colon tumors in mice were induced as previously described (Wirtz, S. et al., 2007; Tanaka, T. et al., 2003). Briefly, mice were injected i.p. with 7.5 mg/kg azoxymethane (AOM) (Sigma-Aldrich, A5486) followed by repeated administration of DSS. 300 U recombinant mouse IL-6 (ImmunoTools GmbH, Germany) was administered by oral gavage.
Mice were injected with 10 mg/kg BrdU 2.5 hrs prior to sacrifice. The colons were extracted, flushed with ice cold PBS to remove feces, fixed overnight at 4° C. in neutral buffered 4% formaldehyde as “Swiss Rolls”, which were further dehydrated, embedded in paraffin and sectioned. Sections were stained with Haematoxylin and Eosin (Sigma), Alcian blue, Giemsa and PAS. Colitis severity and tumor stage were scored and graded by pathologists in a blinded manner according to previously described criteria (Dube, P. E. et al., 2012; Musteanu, M. et al., 2010). For immunohistochemistry, sections were dewaxed, rehydrated and boiled in Citrate buffer pH 6.1 (S1699, Dakocytomation, Glostrup, Denmark) for antigen recovery. Endogenous peroxidase was quenched by incubation with 3% H2O2 in TBS, followed by blocking with 10% goat serum in 2% BSA in TBS—0.1% Tween. Sections were then incubated overnight with antibodies against β-catenin (Cell Signaling, Danvers, Mass.; 9582), cleaved caspase 3 (Cell Signaling; 9661), lysozyme (Dako; A0099), EGFR (sc-03, Santa Cruz Biotechnology, Santa Cruz, Calif.), pTyr705-STAT3 (9145, Cell Signaling), survivin (Cell Signaling; 2808) and synaptophysin (GTX100865, GeneTex Irvine, Calif.), respectively. All sections were further treated with SignalStain® Boost (Cell Signaling; 8114) to detect bound antibody and with liquid3-Amino-9-Ethylcarbazole Chromogen/Substrate (BP 1108, ID LABS™ ON, Canada) for peroxidase staining and counterstained with Haematoxylin (HHS32, Sigma-Aldrich). For BrdU staining, sections were treated with 2 N HCl after antigen recovery, blocked as described above and incubated with anti-BrdU antibody (347580, BD Biosciences) and further with secondary antibody (Invitrogen A-11018) and counterstained with DAPI.
Intestinal barrier permeability was assessed as previously described (Chalaris, A. et al., 2010). Briefly, mice were orally gavaged with 60 mg/kg FITC-Dextran (Sigma FD4), food and water were withdrawn 4 h prior to gavage. FITC levels were determined in the serum 4 h post gavage by absorption at 488 nm using standard dilutions of FITC-Dextran as reference.

[2] = test system: IL-6 trans-signaling; settings: exogenous administration, mouse model of CAC; cited from earlier work

B1: IL-6: recombinant mouse IL-6 administered by oral gavage (protein, UniProt P08505 25-211, looked up)
Interleukin-6: FPTSQVRRGDFTEDTTPNRPVYTTSQVGGLITHVLWEIVEMRKELCNGNSDCMNNDDALAENNLKLPEIQRNDGCYQTGYNQEICLLKISSGLLEYHSYLEYMKNNLKDNKKDKARVLQRDTETLIHIFNQEVKDLHKIVLPTPISNALLTDKLESQKEWLRTKTIQFILKSLEEFLKVTLRSTRQT
For B1, which DSS-induced weight loss ([1]; Egfr^wa2/wa2 mice) is on record?
Its DSS-induced weight loss is “partially rescued”.

What about the “epithelial proliferation during colitis (BrdU)” value ([1]; Egfr^wa2/wa2 mice) of the same molecule?
The value was “partially”.

And the “apoptosis (cleaved Caspase 3)” value ([1]; Egfr^ΔIEC mice)?
The value was “decreased”.

And the “apoptosis (cleaved Caspase 3)” value ([1]; Egfr^ΔMYL and Egfr^wa2/wa2 mice, FIGS. 18B, 26B)?
Its value is “not affected”.

And the “pY-STAT3 nuclear localization in crypts” value ([1]; Egfr^ΔMYL mice during DSS treatment, FIGS. 18C, 18D)?
Its value is “fully restored”.

And the DSS-induced weight loss ([1]; Egfr^ΔMYL mice)?
Its DSS-induced weight loss is “able to protect”.

And the number of ulcers ([1]; Egfr^ΔMYL mice, FIG. 17D)?
Its number of ulcers is “decreased”.

And the “loss of epithelial barrier function (FITC-dextran in serum)” value ([1]; Egfr^ΔMYL mice, FIG. 17E)?
The value was “protected”.

And the “epithelial proliferation during colitis (BrdU)” value ([1]; Egfr^ΔMYL mice)?
Its value is “fully”.

B2: gp130: glycoprotein-130, exogenously administered to inhibit IL-6 trans-signaling (protein, UniProt P40189 23-918, looked up)
Interleukin-6 receptor …: ELLDPCGYISPESPVVQLHSNFTAVCVLKEKCMDYFHVNANYIVWKTNHFTIPKEQYTIINRTASSVTFTDIASLNIQLTCNILTFGQLEQNVYGITIISGLPPEKPKNLSCIVNEGKKMRCEWDGGRETHLETNFTLKSEWATHKFADCKAKRDTPTSCTVDYSTVYFVNIEVWVEAENALGKVTSDHINFDPVYKVKPNPPHNLSVINSEELSSILKLTWTNPSIKSVIILKYNIQYRTKDASTWSQIPPEDTASTRSSFTVQDLKPFTEYVFRIRCMKEDGKGYWSDWSEEASGITYEDRPSKAPSFWYKIDPSHTQGYRTVQLVWKTLPPFEANGKILDYEVTLTRWKSHLQNYTVNATKLTVNLTNDRYLATLTVRNLVGKSDAAVLTIPACDFQATHPVMDLKAFPKDNMLWVEWTTPRESVKKYILEWCVLSDKAPCITDWQQEDGTVHRTYLRGNLAESKCYLITVTPVYADGPGSPESIKAYLKQAPPSKGPTVRTKKVGKNEAVLEWDQLPVDVQNGFIRNYTIFYRTIIGNETAVNVDSSHTEYTLSSLTSDTLYMVRMAAYTDEGGKDGPEFTFTTPKFAQGEIEAIVVPVCLAFLLTTLLGVLFCFNKRDLIKKHIWPNVPDPSKSHIAQWSPHTPPRHNFNSKDQMYSDGNFTDVSVVEIEANDKKPFPEDLKSLDLFKKEKINTEGHSSGIGGSSCMSSSRPSISSSDENESSQNTSSTVQYSTVVHSGYRHQVPSVQVFSRSESTQPLLDSEERPEDLQLVDHVDGGDGILPRQQYFKQNCSQHESSPDISHFERSKQVSSVNEEDFVRLKQQISDHISQSCGSGQMKMFQEVSAADAFGPGTEGQVERFETVGMEAATDEGMPKSYLPQTVRQGGYMPQ
For B2, which “colitis and tumor development” value [2] is on record?
The value was “substantial decrease”.
